Data reported in paper doi:10.1101/2025.11.26.690765.

Biological target: 4-1BB (Acro) (Homo sapiens (assumed)) (UniProt Q07011)
Test: SPR

- Kd: 8 nM
Substance: Urelumab, variable domains in human IgG1 expression vectors (antibody)
